Results published in PMC4441793.

Assays:
[1] = molecular target: HIV-1 reverse transcriptase p66 subunit (immature RT precursor) (human immunodeficiency virus type 1 (HIV-1)); assay: SEC-MALS
[2] = molecular target: HIV-1 reverse transcriptase p51 subunit (residues 1-440) (human immunodeficiency virus type 1 (HIV-1)); assay: SEC-MALS

Substance | stoichiometry N [1] | percent dimer in the NMR sample [2] [%] | stoichiometry N [2]
HIV-1 reverse transcriptase p66 subunit (immature RT precursor) (enzyme) | 2 | – | –
HIV-1 reverse transcriptase p51 subunit (residues 1-440) (domain or fragment) | – | < 60 | 2
